# ± gives the standard deviation of the averaged measurements.
# Test: total protein half-life in vivo (active degradation + dilution); higher = more stable protein
# [1] = E. coli NCM3722 delta-clpP delta-lon delta-hslV, growth: N-lim chemostat, doubling time 6 h
# [2] = E. coli NCM3722 delta-clpP, growth: N-lim chemostat, doubling time 6 h
# [3] = E. coli NCM3722 delta-hslV, growth: N-lim chemostat, doubling time 6 h
# [4] = E. coli NCM3722 delta-lon, growth: N-lim chemostat, doubling time 6 h
# [5] = E. coli NCM3722 delta-smpB, growth: N-lim chemostat, doubling time 6 h
# [6] = wild type E. coli NCM3722, growth: C-lim chemostat, doubling time 3 h
# [7] = wild type E. coli NCM3722, growth: C-lim chemostat, doubling time 6 h
# [8] = wild type E. coli NCM3722, growth: C-lim chemostat, doubling time 12 h
# [9] = wild type E. coli NCM3722, growth: N-lim chemostat, doubling time 6 h
# [10] = wild type E. coli NCM3722, growth: N-lim chemostat, doubling time 12 h
# [11] = wild type E. coli NCM3722, growth: P-lim chemostat, doubling time 6 h
# [12] = wild type E. coli NCM3722, growth: P-lim chemostat, doubling time 12 h
Sequence,total protein half-life in vivo [1],total protein half-life in vivo [2],total protein half-life in vivo [3],total protein half-life in vivo [4],total protein half-life in vivo [5],total protein half-life in vivo [6],total protein half-life in vivo [7],total protein half-life in vivo [8],total protein half-life in vivo [9],total protein half-life in vivo [10],total protein half-life in vivo [11],total protein half-life in vivo [12]
MSTVTITDLARENVRNLTPYQSARRLGGNGDVWLNANEYPTAVEFQLTQQTLNRYPECQPKAVIENYAQYAGVKPEQVLVSRGADEGIELLIRAFCEPGKDAILYCPPTYGMYSVSAETIGVECRTVPTLDNWQLDLQGISDKLDGVKVVYVCSPNNPTGQLINPQDFRTLLELTRGKAIVVADEAYIEFCPQASLAGWLAEYPHLAILRTLSKAFALAGLRCGFTLANEEVINLLMKVIAPYPLSTPVADIAAQALSPQGIVAMRERVAQIIAEREYLIAALKEIPCVEQVFDSETNYILARFKASSAVFKSLWDQGIILRDQNKQPSLSGCLRITVGTREESQRVIDALRAEQV,3.92 ± 0.55 h,3.15 ± 0.066 h,3.41 ± 0.045 h,3.73 ± 0.54 h,3.535 ± 0.032 h,3.02 ± 0.27 h,5.38 ± 0.12 h,9.87 ± 1.3 h,3.247 ± 0.012 h,4.98 ± 0.15 h,5.32 ± 0.39 h,10.9 ± 0.23 h
MSVENIVNINESNLQQVLEQSMTTPVLFYFWSERSQHCLQLTPILESLAAQYNGQFILAKLDCDAEQMIAAQFGLRAIPTVYLFQNGQPVDGFQGPQPEEAIRALLDKVLPREEELKAQQAMQLMQESNYTDALPLLKDAWQLSNQNGEIGLLLAETLIALNRSEDAEAVLKTIPLQDQDTRYQGLVAQIELLKQAADTPEIQQLQQQVAENPEDAALATQLALQLHQVGRNEEALELLFGHLRKDLTAADGQTRKTFQEILAALGTGDALASKYRRQLYALLY,4.51 ± 0.3 h,4.61 ± 0.092 h,5.26 ± 0.61 h,6.044 ± 0.054 h,4.75 ± 0.35 h,3.1 ± 0.24 h,6.038 ± 0.01 h,11 ± 0.52 h,5.25 ± 0.16 h,8.64 ± 0.25 h,5.31 ± 0.12 h,11.9 ± 0.69 h
MSVIGRIHSFESCGTVDGPGIRFITFFQGCLMRCLYCHNRDTWDTHGGKEVTVEDLMKEVVTYRHFMNASGGGVTASGGEAILQAEFVRDWFRACKKEGIHTCLDTNGFVRRYDPVIDELLEVTDLVMLDLKQMNDEIHQNLVGVSNHRTLEFAKYLANKNVKVWIRYVVVPGWSDDDDSAHRLGEFTRDMGNVEKIELLPYHELGKHKWVAMGEEYKLDGVKPPKKETMERVKGILEQYGHKVMF [P0A9N4],4.86 ± 0.073 h,5.05 ± 1.6 h,5.08 ± 0.1 h,4.485 ± 0.029 h,3.9 ± 0.28 h,2.9 ± 0.1 h,5.48 ± 1 h,9.78 ± 0.27 h,4.41 ± 0.36 h,6.62 ± 0.36 h,4.78 ± 0.3 h,10.1 ± 0.91 h
MSVIIVGGGMAGATLALAISRLSHGALPVHLIEATAPESHAHPGFDGRAIALAAGTCQQLARIGVWQSLADCATAITTVHVSDRGHAGFVTLAAEDYQLAALGQVVELHNVGQRLFALLRKAPGVTLHCPDRVANVARTQSHVEVTLESGETLTGRVLVAADGTHSALATACGVDWQQEPYEQLAVIANVATSVAHEGRAFERFTQHGPLAMLPMSDGRCSLVWCHPLERREEVLSWSDEKFCRELQSAFGWRLGKITHAGKRSAYPLALTHAARSITHRTVLVGNAAQTLHPIAGQGFNLGMRDVMSLAETLTQAQERGEDMGDYGVLCRYQQRRQSDREATIGVTDSLVHLFANRWAPLVVGRNIGLMTMELFTPARDVLAQRTLGWVAR,5.61 ± 0.23 h,4.77 ± 0.24 h,6.05 ± 2.4 h,3.69 ± 0.053 h,4.23 ± 0.17 h,2.72 ± 0.17 h,4.42 ± 0.18 h,6.83 ± 0.21 h,4.24 ± 1.1 h,9.5 h,2.82 ± 0.096 h,4.59 ± 0.42 h
MSVKIVIKPNTYFDSVSLMSISTRANKLDGVEQAFVAMATEMNKGVLKNLGLLTPELEQAKNGDLMIVINGKSGADNEQLLVEIEELFNTKAQSGSHEARYATIGSAKKHIPESNLAVISVNGLFAAREARQALQNDLNVMLFSDNVSVEDELALKQLAHEKGLLMMGPDCGTAIINGAALCFGNAVRRGNIGIVGASGTGSQELSVRIHEFGGGVSQLIGTGGRDLSEKIGGLMMLDAIGMLENDPQTEIIALISKPPAPAVARKVLERARACRKPVVVCFLDRGETPVDEQGLQFARGTKEAALKAVMLSGVKQENLDLHTLNQPLIADVRARLQPQQKYIRGLFCGGTLCDETMFAVMEKHGDVYSNIQPDPEFRLKDINRSIKHTFLDFGDDDFTNGKPHPMIDPTNRISRLIEEARDPEVAVIVMDFVLGFGSHEDPVGSTIETIKEAKAIAAAEGRELIILAYVLGTDLDTPSLEQQSQMLLDAGVILASSSTNTGLLAREFICKGEEA,4.99 h,6.9 h,3.51 h,3.92 h,3.47 ± 0.37 h,3.06 h,4.99 ± 0.41 h,4.892 ± 0.0075 h,5.14 h,8.02 ± 1.4 h,4.47 h,7.02 h
MSVKVIVTDMDGTFLNDAKTYNQPRFMAQYQELKKRGIKFVVASGNQYYQLISFFPELKDEISFVAENGALVYEHGKQLFHGELTRHESRIVIGELLKDKQLNFVACGLQSAYVSENAPEAFVALMAKHYHRLKPVKDYQEIDDVLFKFSLNLPDEQIPLVIDKLHVALDGIMKPVTSGFGFIDLIIPGLHKANGISRLLKRWDLSPQNVVAIGDSGNDAEMLKMARYSFAMGNAAENIKQIARYATDDNNHEGALNVIQAVLDNTSPFNS,5.01 ± 0.82 h,4.02 ± 0.23 h,4.38 ± 0.48 h,4.38 ± 0.34 h,3.98 ± 0.12 h,3.71 ± 0.2 h,–,12.38 ± 0.075 h,4.31 ± 0.45 h,6.96 ± 0.49 h,6.13 ± 0.23 h,–

# Reference: the supplement of paper PMC11246515
